Experimental data reported in article PMC4045772 (PLoS ONE, 2014).

Molecular target: biotinylated Cul3/Rbx1 (UniProt Q13618 1-768; P62877 1-108, biotin (BirA biotinylation of the Avi tag))
Assay: AlphaScreen or HTRF; 30 nM His-tagged Keap1 (35-235) incubated with CDDO or DMSO 2.5 h at 37°C, then 30 nM biotinylated Cul3/Rbx1 1.5 h at room temperature; nickel chelate donor beads and streptavidin acceptor beads
Details: both partners purified

biotinylated Cul3/Rbx1, sequence (Q13618 whole entry, chain 1 of 2): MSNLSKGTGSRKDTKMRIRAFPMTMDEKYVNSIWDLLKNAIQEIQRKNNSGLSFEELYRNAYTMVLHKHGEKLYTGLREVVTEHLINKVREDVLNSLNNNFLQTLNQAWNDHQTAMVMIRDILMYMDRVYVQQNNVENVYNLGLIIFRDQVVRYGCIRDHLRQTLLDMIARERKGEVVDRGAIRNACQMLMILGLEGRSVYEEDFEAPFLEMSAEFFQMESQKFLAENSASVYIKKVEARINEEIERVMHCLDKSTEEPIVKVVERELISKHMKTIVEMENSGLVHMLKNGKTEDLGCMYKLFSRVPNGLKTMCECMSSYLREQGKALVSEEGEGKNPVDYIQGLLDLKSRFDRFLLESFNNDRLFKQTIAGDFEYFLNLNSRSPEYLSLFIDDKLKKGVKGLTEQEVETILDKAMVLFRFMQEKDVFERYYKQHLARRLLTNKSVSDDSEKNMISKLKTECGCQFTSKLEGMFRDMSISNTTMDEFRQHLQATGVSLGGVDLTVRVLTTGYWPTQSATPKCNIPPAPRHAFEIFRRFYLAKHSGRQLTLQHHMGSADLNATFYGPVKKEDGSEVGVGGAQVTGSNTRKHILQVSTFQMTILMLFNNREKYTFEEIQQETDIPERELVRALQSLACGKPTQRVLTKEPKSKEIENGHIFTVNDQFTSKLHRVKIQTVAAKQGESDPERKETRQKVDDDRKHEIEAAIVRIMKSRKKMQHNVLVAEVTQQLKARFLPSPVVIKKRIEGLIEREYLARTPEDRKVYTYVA
biotinylated Cul3/Rbx1, sequence (P62877 whole entry, chain 2 of 2): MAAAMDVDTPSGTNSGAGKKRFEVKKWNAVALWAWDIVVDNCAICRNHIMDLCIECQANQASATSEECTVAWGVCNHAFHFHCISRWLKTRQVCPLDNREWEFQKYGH

binding result: binds
B1: Keap1 BTB with the first ~50 residues of the BACK domain (residues 35-235), C151S (domain or fragment, human, UniProt Q14145 35-235, looked up)
chain: STECKAEVTPSQHGNRTFSYTLEDHTKQAFGIMNELRLSQQLCDVTLQVKYQDAPAAQFMAHKVVLASSSPVFKAMFTNGLREQGMEVVSIEGIHPKVMERLIEFAYTASISMGEKSVLHVMNGAVMYQIDSVVRACSDFLVQQLDPSNAIGIANFAEQIGCVELHQRAREYIYMHFGEVAKQEEFFNLSHCQLVTLISRD
